# Legend:
# [1] = MEMS DSC measurement of lysozyme unfolding (Example 2); assay type: physicochemical; details: 0.1 M Glycine-HCl buffer pH 2.5; 1 to 20 mg/mL; scan 25-75° C. at 5° C./min
# Method: DSC measurements of biomolecules were performed using the calibrated microdevice, whose sample chamber and reference chamber were respectively filled with biological sample and buffer solutions, scanned in a range of temperature of interest. The temperature sensors were used to monitor the temperatures of calorimetric chambers while the device output was obtained in real time to compute the biomolecular thermal power. Before DSC measurements, the baseline in device output, i.e., the thermopile output voltage in the absence of a differential power input, during temperature scanning was measured with both calorimetric chambers filled with buffer solutions. […]
# The thermopile output voltage as a function of temperature, corrected by baseline subtraction, was measured at varying protein concentrations ranging from 1 to 20 mg/mL (FIG. 10).
# Despite the amplitude difference of device output at various protein concentrations, they all yielded consistent estimates of the thermodynamic properties associated with the protein unfolding process. In particular, the profile shape of c was generally not influenced by protein concentration, and ΔH was consistently determined to be approximately 450 kJ/mol with a corresponding melting temperature Tm of approximately 55° C.
# [2] = MEMS AC-DSC measurement of lysozyme unfolding (Example 3); assay type: physicochemical; details: 10 and 20 mg/mL in 0.1 M Glycine-HCl pH 2.5, 5° C./min, modulation 1, 5 or 10 Hz
# Source text: The microdevice was also placed in a thermal enclosure built in-house. […] The AC-DSC measurement was fully automated through a Lab VIEW program.
# The MEMS AC-DSC device calibrated above was used to measure the thermal behavior of protein unfolding.
# Meanwhile, the specific heat capacity (c) of the protein as a function of temperature can be computed from the thermopile voltage amplitude (FIG. 19).
# [3] = Polymer MEMS DSC measurement of lysozyme unfolding (Example 6); assay type: physicochemical; details: 0.1 M Glycine-HCL buffer pH 2.5; scan 5 K/min; all concentrations except 1 mg/mL
# Method: The sample solutions and buffer were degassed overnight in a vacuum chamber built in-house, metered with Micropipettes, and introduced by a syringe pump (New Era Pump Systems, Inc., NE-1000) before the DSC measurements.
# Before DSC measurements, the baseline, i.e., the thermopile output voltage in the absence of a differential power input, during temperature scanning in the range of interest was recorded with both calorimetric channels filled with buffer solutions. After which, characterizations of biomolecules were performed with the calorimetric channels, respectively filled with a biological sample and a buffer solutions, and scanned in the same range with pre-specified rate. The temperature sensors were used to monitor the temperatures of calorimetric channels, while the device output was obtained in real time to compute the biomolecular thermal power.
# The calibrated polymer MEMS DSC device was then exploited to characterize protein unfolding. […]
# The thermopile differential voltage as a function of temperature, corrected by baseline subtraction, was measured at varying concentrations ranging from 1 to 20 mg/mL (FIG. 42). […] Furthermore, the differential heat capacity as a function of temperature and the calibrated device sensitivity can be calculated from the device voltage output by Equation 7. The sample heat capacity as a function of temperature was determined by: […]
# [4] = cited from earlier work
substance,measurement,setting,value
"lysozyme: targeted sample biomolecule, purchased from Sigma Aldrich (lyophilized powder, protein ≥90%), used for protein unfolding DSC",melting temperature Tm,[1],approximately 55 °C
same,total change of molar enthalpy (ΔH) of lysozyme unfolding,[1],approximately 450 kJ/mol
same,apparent melting temperature (Tm),[2],55-58 °C
same,melting temperature Tm,[3],54.71 °C
same,total enthalpy change per mole of lysozome (ΔH),[3],101 kcal/mol
same,"Tm of lysozyme, published data",[4],55-58.9 °C
same,"ΔH of lysozyme unfolding, published data",[4],90.1 to 105 kcal/mol
